target: moesin FERM domain, P26038; assay: FP; conditions: modification not given
Sequence (P26038 2-295): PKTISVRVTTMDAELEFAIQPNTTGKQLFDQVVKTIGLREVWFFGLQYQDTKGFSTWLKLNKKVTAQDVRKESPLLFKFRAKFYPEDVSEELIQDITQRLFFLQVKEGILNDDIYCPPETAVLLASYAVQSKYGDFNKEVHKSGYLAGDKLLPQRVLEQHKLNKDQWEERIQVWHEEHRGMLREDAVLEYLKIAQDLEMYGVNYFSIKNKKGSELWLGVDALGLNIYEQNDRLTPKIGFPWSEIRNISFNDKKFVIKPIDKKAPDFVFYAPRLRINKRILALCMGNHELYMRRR

Row | Binder | Kd [nM]
1 | TNGYYSVNTFKEHHST | 100
2 | LEFADFYAFRSSYPDH | 50000
3 | LEFADAYDFRSSYPDH | 85000
4 | LEFADFYDFRSSAPDH | 2800
5 | LEAADFYDFRSSYPDH | 2300
6 | TNGAYSVNTFKEHHST | 110
